Reference: patent publication US20260002156

Target: T1, fluorogenic peptide substrate to ADAM10 (Mca-PLAQAV-Dpa-RSSR)
T1 chain: PLAQAVXRSSR

B1: ADAM10 on the surface of HCC cells (HepG2) (protein)
chain: TTSAEKNTCQLYIQTDHLFFKYYGTREAVIAQISSHVKAIDTIYQTTDFSGIRNISFMVKRIRINTTADEKDPTNPFRFPNIGVEKFLELNSEQNHDDYCLAYVFTDRDFDDGVLGLAWVGAPSGSSGGICEKSKLYSDGKKKSLNTGIITVQNYGSHVPPKVSHITFAHEVGHNFGSPHDSGTECTPGESKNLGQKENGNYIMYARATSGDKLNNNKFSLCSIRNISQVLEKKRNNCFVESGQPICGNGMVEQGEECDCGYSDQCKDECCFDANQPEGRKCKLKPGKQCSPSQGPCCTAQCAFKSKSEKCRDDSDCAREGICNGFTALCPASDPKPNFTDCNRHTQVCINGQCAGSICEKYGLEECTCASSDGKDDKELCHVCCMKKMDPSTCASTGSVQWSRHFSGRTITLQPGSPCNDFRGYCDVFMRCRLVDADGPLARLKKAIFSPELYENIAEWIVAHWWAVLLMGIALIMLMAGFIKICSVHTPSSNPKLPPPKPLPGTLKRRRPPQPIQQPQRQRPRESYQMGHMRR
- fluorescence intensity (fluorogenic peptide cleavage assay): after incubation with HCC cells, the fluorogenic peptide significantly increased the fluorescence intensity, stronger than the recombinant human ADAM10 (rhADAM10) which serves as a positive control

B2: recombinant human ADAM10 (rhADAM10) (protein)
chain: TTSAEKNTCQLYIQTDHLFFKYYGTREAVIAQISSHVKAIDTIYQTTDFSGIRNISFMVKRIRINTTADEKDPTNPFRFPNIGVEKFLELNSEQNHDDYCLAYVFTDRDFDDGVLGLAWVGAPSGSSGGICEKSKLYSDGKKKSLNTGIITVQNYGSHVPPKVSHITFAHEVGHNFGSPHDSGTECTPGESKNLGQKENGNYIMYARATSGDKLNNNKFSLCSIRNISQVLEKKRNNCFVESGQPICGNGMVEQGEECDCGYSDQCKDECCFDANQPEGRKCKLKPGKQCSPSQGPCCTAQCAFKSKSEKCRDDSDCAREGICNGFTALCPASDPKPNFTDCNRHTQVCINGQCAGSICEKYGLEECTCASSDGKDDKELCHVCCMKKMDPSTCASTGSVQWSRHFSGRTITLQPGSPCNDFRGYCDVFMRCRLVDADGPLARLKKAIFSPELYENIAE
- fluorescence intensity (fluorogenic peptide cleavage assay): the recombinant human ADAM10 (rhADAM10) which serves as a positive control
